Data on three molecules can be found in US20220204640A1 (Genentech, published 2022).

In experiment [1] the target is T1, TAT211 polypeptide on the surface of cells (human, UniProt O95436 1-690).
T1 construct: Expressed endogenously (OVCAR-3, OVCAR4, Igrov1, P828, P701sc20) or recombinantly (293/TAT211) on the cell surface
T1 sequence: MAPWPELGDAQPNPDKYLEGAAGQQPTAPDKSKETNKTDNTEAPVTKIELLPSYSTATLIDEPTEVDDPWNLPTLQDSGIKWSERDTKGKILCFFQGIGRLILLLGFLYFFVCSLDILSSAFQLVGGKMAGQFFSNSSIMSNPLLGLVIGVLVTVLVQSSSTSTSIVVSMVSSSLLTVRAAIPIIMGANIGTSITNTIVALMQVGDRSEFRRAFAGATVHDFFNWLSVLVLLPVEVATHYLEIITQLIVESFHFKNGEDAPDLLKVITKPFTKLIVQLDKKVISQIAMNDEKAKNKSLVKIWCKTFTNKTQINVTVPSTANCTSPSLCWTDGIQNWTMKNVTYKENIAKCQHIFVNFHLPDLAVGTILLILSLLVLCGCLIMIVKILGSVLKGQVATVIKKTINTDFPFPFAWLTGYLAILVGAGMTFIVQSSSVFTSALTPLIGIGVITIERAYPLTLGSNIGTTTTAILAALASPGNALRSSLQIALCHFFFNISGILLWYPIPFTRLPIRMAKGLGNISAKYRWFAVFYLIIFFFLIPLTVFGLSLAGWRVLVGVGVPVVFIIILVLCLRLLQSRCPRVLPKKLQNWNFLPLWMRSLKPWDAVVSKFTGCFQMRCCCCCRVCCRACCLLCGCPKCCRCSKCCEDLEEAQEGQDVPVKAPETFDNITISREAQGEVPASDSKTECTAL
In words: Scatchard analysis on cells, IgG.

Experiment [2] has as its target T2, CHO derived TAT211 extracellular domain (glycosylated, immunoadhesin / Fc fusion) (human, UniProt O95436 234-362, glycosylated (CHO)).
T2 construct: not shown: Fc part of the immunoadhesin
T2 sequence: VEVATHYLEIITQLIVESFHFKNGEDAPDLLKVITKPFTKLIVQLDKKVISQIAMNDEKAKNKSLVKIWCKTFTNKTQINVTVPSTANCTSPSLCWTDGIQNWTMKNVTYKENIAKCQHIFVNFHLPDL
In words: surface plasmon resonance for the Fab, compared with mu10H1.

Experiment [3] deals with T2, CHO derived TAT211 extracellular domain …. In words: surface plasmon resonance (Biacore), TAT211 extracellular domain immobilized. (SPR reads the build-up and loss of mass on a sensor chip optically.)
Description: TAT211 extracellular domain (glycosylated) was immobilized (approximately 100-400 RU, in 10 mM Sodium Acetate pH 4.8 on a CM5 sensor chip) and the 10H1 antibody variant served as the analyte (injected at a flow rate of 30 μL/min, using a 2-fold serial dilution of 4 to 1000 nM in PBST). Each sample was analyzed with 4-minute association and 10-minute disassociation. After each injection the chip was regenerated using 10 mM Glycine pH 1.7.
For experiment [4], the target named is T1, TAT211 polypeptide on the surface of …. The experiment in a line: Scatchard analysis on Igrov1 cells expressing TAT211; Igrov1 cells.
Experiment [5] has the same target. The experiment in a line: Scatchard analysis on P701sc20 cells expressing TAT211; P701sc20 cells.
Experiment [6] shares this target. The experiment in a line: Scatchard analysis on OVCAR4 cells expressing TAT211; OVCAR4 cells.
Experiment [7] shares this target. In words: Scatchard analysis on P828 cells expressing TAT211; P828 cells.

Positions count from the first letter of the chain named.

B1: humanized anti-TAT211 antibody 10H1.11.4B (IgG) (antibody, V domains shown)
VH: EVQLVESGGGLVQPGGSLRLSCAASGFSFSDFAMSWVRQAPGKGLEWVATIGRVAFHTYYPDSMKGRFTISRDNSKNTLYLQMNSLRAEDTAVYYCARHRGFDVGHFDFWGQGTLVTVSS
VL: DIQMTQSPSSLSASVGDRVTITCRSSETLVHSSGNTYLEWYQQKPGKAPKLLIYRVSNRFSGVPSRFSGSGSGTDFTLTISSLQPEDFATYYCFQGSFNPLTFGQGTKVEIKR
As to B1, in experiment [1], the binding result is recorded as “binds”.

B2: 10H1-graft as a Fab (Fab, V domains shown)
VH: B1 VH with F56S, A97V
VL: B1 VL with S33N, F98H
notes: Fab expressed in E. coli from the phage display vector; also called 10H1 anti-TAT211 grafted humanized antibody
Take B2: the “fold loss of affinity relative to the mu10H1 hybridoma antibody” value in experiment [2] was approximately 2 fold. In experiment [3], binding was put at a Kd of 74 nM.

B3: murine monoclonal antibody 10H1 (antibody, V domains shown)
VH: EVMLVESGGGLVRPGGSLKVSCAASGFSFSDFAMSWVRRTPDKRLEWVATIGRVASHTYYPDSMKGRFTISRDNAKNTLYLQMNSLRSDDTAIYYCVRHRGFDVGHFDFWGQGTLLTVSA
VL: DILMTQTPLSLPVSLGDQASISCRSSETLVHSNGNTYLEWYLQKLGQPPKLLIYRVSNRFSGVPDRFSGSGSGTDFTLKISRLEAEDLGVYYCFQGSHNPLTFGAGTKVEIKR
notes: Murine hybridoma IgG; also called mu10H1; murine 10H1
In the case of B3, the Kd (in general, the concentration at which binding is half-saturated) in experiment [4] is 61 nM; in experiment [5], 59 nM; in experiment [6], 37 nM; in experiment [7], 36 nM.
